The values that follow come from paper PMC7311433, “Two novel fish paralogs provide insights into the Rid family of imine deaminases active in pre-empting enamine/imine metabolic damage” (Scientific Reports, 2020).

Series [1] concerns the target Salmo salar RidA-1 (Salmo salar). As to the kind of experiment: native MS; ESI mass spectra of 0.5 mg/mL protein in 10 mM ammonium formate; SsRidA-2 also after ultrafiltration on 30 kDa-cutoff membranes (retentate).
Series [2] has the same target. As to the kind of experiment: SEC-MALS; 200 uL of 1 mg/mL protein on Superdex 75 10/300 GL in physiological saline (0.9% w/v NaCl), 0.5 mL/min, mobile phase pH 5.8; MALS and DLS detection.
Series [3] shares this target. As to the kind of experiment: crystal structure; sitting drop at 20 °C, protein 7.5 mg/mL in 154 mM NaCl; SsRidA-1 from 0.2 M NaCl, 0.1 M sodium acetate pH 5.0, 20% PEG 6000; SsRidA-2 from 0.1 M ammonium sulfate, 0.1 M sodium acetate, 25% PEG 4000; data at 100 K.
Series [4] has as its target Salmo salar RidA-2 (Salmo salar). As to the kind of experiment: native MS; ESI mass spectra of 0.5 mg/mL protein in 10 mM ammonium formate; SsRidA-2 also after ultrafiltration on 30 kDa-cutoff membranes (retentate).
The target is the same in series [5]. As to the kind of experiment: SEC-MALS; 200 uL of 1 mg/mL protein on Superdex 75 10/300 GL in physiological saline (0.9% w/v NaCl), 0.5 mL/min, mobile phase pH 5.8; MALS and DLS detection. In general terms: SEC sorts molecules by how far they enter the pores of the column.
The target is the same in series [6]. In words: crystal structure; sitting drop at 20 °C, protein 7.5 mg/mL in 154 mM NaCl; SsRidA-1 from 0.2 M NaCl, 0.1 M sodium acetate pH 5.0, 20% PEG 6000; SsRidA-2 from 0.1 M ammonium sulfate, 0.1 M sodium acetate, 25% PEG 4000; data at 100 K.
Series [7] concerns the molecule itself. In words: SEC-MALS; 200 uL of 1 mg/mL protein on Superdex 75 10/300 GL in physiological saline (0.9% w/v NaCl), 0.5 mL/min, mobile phase pH 5.8; MALS and DLS detection.

For Salmo salar RidA-1 (enzyme), the stoichiometry N in series [1], in series [2] and in series [3] was 3 in each case.
Turning to Salmo salar RidA-2 (enzyme), the stoichiometry N in series [4], in series [5] and in series [6] was 3 throughout.

B1: goat RidA (UK114) (enzyme, goat (Capra hircus))
chain: SSLVRRIISTAKAPAAIGPYSQAVLVDRTIYISGQLGMDPASGQLVPGGVVEEAKQALTNIGEILKAAGCDFTNVVKATVLLADINDFSAVNDVYKQYFQSSFPARAAYQVAALPKGGRVEIEAIAVQGPLTTASL
notes: also called ChRidA; goat UK114
Take B1: the stoichiometry N (in general, a count of units in the complex or per binding partner) in series [7] turned out to be 3.
